Test [1] addresses T1, αT-catenin head (1–659)–β-catenin complex (Mus musculus, UniProt Q65CL1 1-659; Q02248 1-781).
T1 construct: αT-catenin, Mus musculus, head region, aa 1-659; β-catenin, Mus musculus, full length; also called αT-catenin head–β-catenin complex; source: E. coli BL21-Gold, purified; purified complex
T1 sequence (looked up) 1: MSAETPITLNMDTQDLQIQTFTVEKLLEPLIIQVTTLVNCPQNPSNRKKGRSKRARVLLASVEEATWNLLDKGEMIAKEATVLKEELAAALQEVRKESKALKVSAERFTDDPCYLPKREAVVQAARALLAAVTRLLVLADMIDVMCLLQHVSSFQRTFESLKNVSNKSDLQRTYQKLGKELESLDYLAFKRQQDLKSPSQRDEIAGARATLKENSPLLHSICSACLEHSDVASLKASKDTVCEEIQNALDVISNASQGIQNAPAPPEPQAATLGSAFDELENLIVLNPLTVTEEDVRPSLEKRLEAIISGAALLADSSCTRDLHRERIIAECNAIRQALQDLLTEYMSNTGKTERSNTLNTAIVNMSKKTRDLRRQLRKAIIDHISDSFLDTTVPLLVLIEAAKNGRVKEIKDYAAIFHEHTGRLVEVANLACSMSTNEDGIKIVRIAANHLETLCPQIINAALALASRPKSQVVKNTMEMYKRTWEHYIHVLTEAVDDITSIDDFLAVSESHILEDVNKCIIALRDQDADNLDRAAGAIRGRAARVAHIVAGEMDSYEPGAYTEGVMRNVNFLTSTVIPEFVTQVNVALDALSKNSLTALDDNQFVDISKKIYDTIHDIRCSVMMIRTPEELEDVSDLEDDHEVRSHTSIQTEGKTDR
T1 sequence (looked up) 2: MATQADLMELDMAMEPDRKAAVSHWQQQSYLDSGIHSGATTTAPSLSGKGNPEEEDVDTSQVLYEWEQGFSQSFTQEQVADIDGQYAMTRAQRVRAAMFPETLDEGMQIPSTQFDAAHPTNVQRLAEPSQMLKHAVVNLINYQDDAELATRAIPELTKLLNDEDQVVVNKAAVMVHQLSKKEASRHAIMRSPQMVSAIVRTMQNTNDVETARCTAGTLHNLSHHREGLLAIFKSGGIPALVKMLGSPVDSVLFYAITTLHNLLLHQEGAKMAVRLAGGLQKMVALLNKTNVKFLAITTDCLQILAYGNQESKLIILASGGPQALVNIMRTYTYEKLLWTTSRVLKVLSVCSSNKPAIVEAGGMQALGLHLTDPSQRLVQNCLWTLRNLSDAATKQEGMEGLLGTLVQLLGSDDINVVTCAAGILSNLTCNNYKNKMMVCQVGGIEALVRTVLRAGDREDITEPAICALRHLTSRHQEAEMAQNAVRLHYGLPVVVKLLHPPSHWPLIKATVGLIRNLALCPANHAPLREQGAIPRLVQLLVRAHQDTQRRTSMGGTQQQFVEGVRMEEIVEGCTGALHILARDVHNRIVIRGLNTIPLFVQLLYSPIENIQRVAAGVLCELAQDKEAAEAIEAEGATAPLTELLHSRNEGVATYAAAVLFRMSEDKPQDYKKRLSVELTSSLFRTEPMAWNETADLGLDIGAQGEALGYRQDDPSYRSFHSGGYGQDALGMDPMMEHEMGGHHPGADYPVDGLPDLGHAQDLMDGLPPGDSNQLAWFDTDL
The test can be described thus: ITC; vinculin D1 injected into αT-catenin or αE-catenin fragment (or αT-catenin head–β-catenin complex) in the cell; 25 °C; 20 mM Hepes pH 8.0, 150 mM NaCl, 1 mM TCEP. To be noted: both partners purified. A general note: In ITC the heat of successive injections is recorded.

Test [2] concerns the target T2, αT-catenin N2-M3 (aa 147–626) (Mus musculus, UniProt Q65CL1 147-626).
T2 construct: αT-catenin, Mus musculus, N2-M3, aa 147-626; in pGEX-TEV; also called αT-catenin N2-M3 (147–626); source: E. coli BL21-Gold, purified (glutathione-agarose, TEV cleavage, Mono Q or Mono S, S200)
T2 sequence (looked up): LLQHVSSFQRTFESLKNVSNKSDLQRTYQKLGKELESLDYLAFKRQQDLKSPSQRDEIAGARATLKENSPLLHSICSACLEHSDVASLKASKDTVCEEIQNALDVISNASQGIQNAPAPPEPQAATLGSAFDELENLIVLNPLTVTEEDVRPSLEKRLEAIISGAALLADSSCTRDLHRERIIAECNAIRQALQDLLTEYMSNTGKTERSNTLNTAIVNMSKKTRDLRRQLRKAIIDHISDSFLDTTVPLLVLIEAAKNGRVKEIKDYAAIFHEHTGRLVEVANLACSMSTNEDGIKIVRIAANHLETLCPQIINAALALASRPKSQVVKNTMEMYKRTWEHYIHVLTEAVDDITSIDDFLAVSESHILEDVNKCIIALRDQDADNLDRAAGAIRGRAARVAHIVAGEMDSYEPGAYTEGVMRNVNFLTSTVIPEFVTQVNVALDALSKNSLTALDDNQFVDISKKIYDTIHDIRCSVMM
Described as above. Particulars: both partners purified.

We go through one molecule from publication PMC8091058, “Distinct intramolecular interactions regulate autoinhibition of vinculin binding in αT-catenin and αE-catenin” (The Journal of Biological Chemistry, 2021).

Broadly, the Kd is the free concentration of one partner at which half of the binding sites on the other are occupied at equilibrium, for simple one-to-one binding. Higher therefore signals weaker binding.

B1: vinculin D1 (aa 1–259) (domain or fragment, UniProt P12003 1-259, looked up)
chain: MPVFHTRTIESILEPVAQQISHLVIMHEEGEVDGKAIPDLTAPVSAVQAAVSNLVRVGKETVQTTEDQILKRDMPPAFIKVENACTKLVRAAQMLQADPYSVPARDYLIDGSRGILSGTSDLLLTFDEAEVRKIIRVCKGILEYLTVAEVVETMEDLVTYTKNLGPGMTKMAKMIDERQQELTHQEHRVMLVNSMNTVKELLPVLISAMKIFVTTKNTKSQGIEEALKNRNFTVEKMSAEINEIIRVLQLTSWDEDAWA
notes: vinculin D1 fragment, aa 1-259, the first 2 four-helix bundles; in pGEX-TEV; also called vinculin aa 1 to 259 (D1); vinculin N-terminus; source: E. coli BL21-Gold, purified (glutathione-agarose, TEV cleavage, Mono Q or Mono S, S200)
B1: the Kd in test [1] was 2770 ± 875 nM; in test [2] it was 50.2 ± 40.4 nM. In addition, the dH in test [1] stood at 4.4 ± 0.6 kcal/mol; in test [2], 4 ± 0.1 kcal/mol.
